Measurements published in patent publication US6602687B1, “DNA encoding human ciliary neurotrophic factor and method for producing the protein encoded thereby” (Regeneron Pharmaceuticals, Inc., priority 1989, dated 2003).

Key:
[1] = test system: Ventral spinal cord neurons; assay: Neurofilament (NF) assay in ventral spinal cord neuron cultures; format: cell-based, rat; details: CNTF 10 ng/ml, NGF 50 ng/ml at plating; day 7
Method: Sprague-Dawley rats (HSD or Zivic-Miller) were used for all experiments. Pregnant rats (E14) were sacrificed as described in 10.1.1.
Spinal cords were removed aseptically from rat embryos as described in 10.1.2. The cord tissues were minced into small pieces and incubated in 0.1% trypsin (GIBCO) and 0.01% deoxyribonuclease type 1 (Sigma) at 37° C. for 20 minutes. Trypsin solution was then removed, rinsed and replaced with medium consisting of 45% Eagle's minimum essential medium (MEM), 45% Ham's nutrient mixture F12 (F12), 5% fetal calf serum (GIBCO), 5% horse serum (GIBCO) glutamine (2 mM), penicillin G (0.5 U/ml), and streptomycin (0.5 ug/ml). […] Total cell number yielded was determined by hemocytometer counting in the presence of trypan blue. […]
After fixation of the cells in 4% paraformaldehyde at 4° C. for 2 hours, the cultures were then permeabilized and blocked according to the procedures described in Doherty et al. (1984, J. Neurochem. 42:1116-1122). Neurofilament protein was detected using a monoclonal antibody RT97 (Wood and Anderton, 1981, Biosci. Rep. 1:263-268) at a 1:1000 dilution. The reaction product was visualized using O-phenylenediamine (OPD) as a substrate and optical density was measured at 490 nm.

[2] = test system: hippocampal neurons; assay: Glutamate-induced toxicity in hippocampal cultures (MTT assay); format: cell-based, rat; details: in the presence of CNTF (10 ng/ml)
Method: FIG. 38. Protective effect of CNTF on glutamate-induced toxicity in hippocampal cultures. […] Glutamate at various concentations (100-1000 uM) was added for 15 minutes, after which the cells were cultured in the absence of glutamate or CNTF for 20 h. Survival of cells at the end of the culture period was assessed by MTT assay based on the conversion of MTT (3-(4,5-dimethylthiazol-2-yl)-2,5-diphenyl tetrazolium bromide) to a purple product by vital cells. MTT dye was added to a final concentration of 0.5 mg/ml. Dyes taken up by live cells were solubilized by the addition of 0.08N HCI in isopropranol 5 hours later, and O.D. (570-650 nm) was measured.
The effect of CNTF on GABAergic neurons was dependent on the density at which the cells were plated. […] This may be due to an elevated level of neurotrophic factors in high density cultures. […] We have assessed the neurotoxic effects of various concentrations of glutamate (10-1000 μM) by means of a calorimetric MTT assay, as shown in FIG. 38. At a concentration of 1 mM, glutamate reduced cell survival to approximately 10%. In the presence of CNTF ([…]), cell survival following exposure to glutamate was enhanced.

B1: CNTF: ciliary neurotrophic factor; recombinant rat CNTF in Sections 10, 15, 17, purified rat sciatic nerve CNTF in Section 11; see endpoint conditions (protein, UniProt P20294 1-200, looked up)
Ciliary neurotrophic factor: MAFAEQTPLTLHRRDLCSRSIWLARKIRSDLTALMESYVKHQGLNKNINLDSVDGVPVASTDRWSEMTEAERLQENLQAYRTFQGMLTKLLEDQRVHFTPTEGDFHQAIHTLMLQVSAFAYQLEELMVLLEQKIPENEADGMPATVGDGGLFEKKLWGLKVLQELSQWTVRSIHDLRVISSHQMGISALESHYGAKDKQM
In the case of B1, the “increase in NF content versus untreated controls” value [1] is reported as 2.0 fold and the “cell survival following exposure to glutamate” value [2] is reported as “enhanced”.
